Columns and labels:
[1] = target: Human PSMA; test: BLI (Octet)
[2] = target: T1, Cyno PSMA; test: BLI (Octet)
T1 chain: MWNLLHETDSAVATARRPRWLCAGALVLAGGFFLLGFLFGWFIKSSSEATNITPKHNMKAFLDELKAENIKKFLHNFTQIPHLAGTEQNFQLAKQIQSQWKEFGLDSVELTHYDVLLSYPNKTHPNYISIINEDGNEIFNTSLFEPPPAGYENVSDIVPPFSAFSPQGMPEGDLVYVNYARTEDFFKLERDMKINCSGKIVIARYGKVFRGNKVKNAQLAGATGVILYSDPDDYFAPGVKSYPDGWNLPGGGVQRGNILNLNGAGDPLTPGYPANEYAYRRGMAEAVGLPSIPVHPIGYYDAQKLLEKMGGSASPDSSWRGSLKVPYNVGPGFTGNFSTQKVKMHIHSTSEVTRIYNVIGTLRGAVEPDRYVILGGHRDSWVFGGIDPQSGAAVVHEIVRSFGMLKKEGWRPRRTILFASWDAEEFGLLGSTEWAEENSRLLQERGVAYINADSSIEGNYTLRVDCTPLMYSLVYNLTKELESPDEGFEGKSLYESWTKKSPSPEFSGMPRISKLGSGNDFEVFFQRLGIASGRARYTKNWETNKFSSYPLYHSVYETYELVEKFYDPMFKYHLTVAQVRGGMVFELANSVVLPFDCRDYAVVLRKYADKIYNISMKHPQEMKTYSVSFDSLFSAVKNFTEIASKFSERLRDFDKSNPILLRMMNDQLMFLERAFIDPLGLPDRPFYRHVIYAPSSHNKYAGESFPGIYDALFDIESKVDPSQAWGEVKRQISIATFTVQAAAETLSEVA

- Kd [1]: 0.4 nM
- Kd [2]: 0.2 nM
B1: XENP14484 (bispecific antibody)
heavy: EVQLVQSGAEVKKPGASVKVSCKTSGYTFTEYTIHWVRQAPGQSLEWMGNINPNNGGTTYNQKFQGRVTITVDKSTSTAYMELSSLRSEDTAVYYCAAGWNFDYWGQGTLVTVSSASTKGPSVFPLAPSSKSTSGGTAALGCLVKDYFPEPVTVSWNSGALTSGVHTFPAVLQSSGLYSLSSVVTVPSSSLGTQTYICNVNHKPSDTKVDKKVEPKSCDKTHTCPPCPAPPVAGPSVFLFPPKPKDTLMISRTPEVTCVVVDVKHEDPEVKFNWYVDGVEVHNAKTKPREEEYNSTYRVVSVLTVLHQDWLNGKEYKCKVSNKALPAPIEKTISKAKGQPREPQVYTLPPSREEMTKNQVSLTCDVSGFYPSDIAVEWESDGQPENNYKTTPPVLDSDGSFFLYSKLTVDKSRWEQGDVFSCSVMHEALHNHYTQKSLSLSPGK
scFv-Fc: not shown
light: DIVMTQSPDSLAVSLGERATLSCRASQDVGTAVDWYQQKPDQSPKLLIYWASTRHTGVPDRFTGSGSGTDFTLTISSLQAEDVAVYFCQQYNSYPLTFGAGTKVEIKRTVAAPSVFIFPPSDEQLKSGTASVVCLLNNFYPREAKVQWKVDNALQSGNSQESVTEQDSKDSTYSLSSTLTLSKADYEKHKVYACEVTHQGLSSPVTKSFNRGEC

From patent publication US20170320947A1 (published 2017)
